# Experimental data: patent US20150259419A1 (PROTHENA BIOSCIENCES, published 2015)
# T1: human MCAM, full length, expressed on transfected cells (human, UniProt P43121 24-646)
# T1 construct: CHO cells transfected with the full length human MCAM gene; also called hMCAM; CD146
# T1 chain: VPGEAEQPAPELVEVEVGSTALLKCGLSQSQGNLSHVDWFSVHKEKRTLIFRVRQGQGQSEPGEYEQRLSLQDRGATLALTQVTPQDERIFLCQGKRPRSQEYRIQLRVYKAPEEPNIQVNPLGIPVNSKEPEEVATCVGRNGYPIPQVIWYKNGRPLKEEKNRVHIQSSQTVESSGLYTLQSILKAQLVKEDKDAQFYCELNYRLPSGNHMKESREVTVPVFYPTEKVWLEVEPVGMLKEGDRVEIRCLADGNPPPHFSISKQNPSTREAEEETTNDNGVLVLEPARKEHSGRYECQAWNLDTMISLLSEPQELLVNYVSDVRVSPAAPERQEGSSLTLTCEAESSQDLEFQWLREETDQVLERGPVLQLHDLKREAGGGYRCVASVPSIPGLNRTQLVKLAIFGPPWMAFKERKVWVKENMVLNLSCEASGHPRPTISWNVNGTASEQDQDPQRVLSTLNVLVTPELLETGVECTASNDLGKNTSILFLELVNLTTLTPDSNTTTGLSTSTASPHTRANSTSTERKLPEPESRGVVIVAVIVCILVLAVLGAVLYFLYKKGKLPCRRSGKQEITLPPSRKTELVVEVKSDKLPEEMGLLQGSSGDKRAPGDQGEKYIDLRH
# T2: recombinant hMCAM-His (human, UniProt P43121 24-559)
# T2 construct: not shown: His tag
# T2 chain: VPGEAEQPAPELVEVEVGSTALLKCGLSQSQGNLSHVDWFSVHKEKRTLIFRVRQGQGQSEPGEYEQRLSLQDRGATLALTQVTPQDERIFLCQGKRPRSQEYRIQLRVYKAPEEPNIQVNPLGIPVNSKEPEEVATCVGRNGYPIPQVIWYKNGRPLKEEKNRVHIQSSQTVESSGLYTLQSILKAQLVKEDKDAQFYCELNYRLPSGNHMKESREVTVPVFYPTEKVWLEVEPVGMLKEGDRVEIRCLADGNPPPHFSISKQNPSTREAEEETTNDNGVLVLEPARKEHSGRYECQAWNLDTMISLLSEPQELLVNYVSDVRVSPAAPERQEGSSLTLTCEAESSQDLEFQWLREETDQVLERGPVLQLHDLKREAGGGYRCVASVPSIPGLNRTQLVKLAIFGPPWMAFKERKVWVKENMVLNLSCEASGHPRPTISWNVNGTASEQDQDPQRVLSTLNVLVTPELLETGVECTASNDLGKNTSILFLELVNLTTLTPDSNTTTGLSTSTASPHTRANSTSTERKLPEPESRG
# T3: human MCAM domain 1 (MCAMhFc domain construct) (human, UniProt P43121 19-129)
# T3 construct: also called amino acids 19-129; not shown: human Fc portion (captured on anti-human IgG Fc biosensors)
# T3 sequence: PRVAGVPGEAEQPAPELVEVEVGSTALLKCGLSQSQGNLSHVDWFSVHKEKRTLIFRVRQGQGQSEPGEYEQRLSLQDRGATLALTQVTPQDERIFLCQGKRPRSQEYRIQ
# What was measured:
# [1] = target: T1, human MCAM, full length, expressed on …; assay: laminin/FACS assay: blocking of laminin 411 binding to hMCAM expressing CHO cells; relative to rodent 2120
# Experimental: Following incubation for 30-45 minutes, the cells were washed and anti-laminin conjugated to AF650 (NovusBio) was added to detect the bound laminin. The cells were run on a flow cytometer to measure the laminin binding signal.
# recombinant hMCAM-His [2] = target: T2, recombinant hMCAM-His; assay: competitive ELISA on hMCAM-His against biotinylated rodent or chimeric 2120; relative to rodent 2120
# Experimental: ELISA plates were coated with recombinant hMCAM-His, and blocked with casein buffer to prevent non-specific binding. Biotinylated rodent or chimeric antibody was added at a subsaturating concentration, in the presence or absence of 3× increasing concentrations of unlabeled competitor (humanized antibody, rodent, or chimeric). After washing to remove unbound antibody, streptavidin HRP was added to allow detection of the biotinylated antibody. The ELISA was developed with TMB substrate and the OD450 was measured. The IC50 of the unlabeled competitor was determined using the GraphPad Prism5 software.
# recombinant hMCAM-His [3] = target: T2, recombinant hMCAM-His; assay: ForteBio Octet Red, antibody on anti-human Fc sensors, hMCAMHis analyte, 1:1 fit; relative to rodent 2120
# Experimental: The affinities were measured using the ForteBio Octet Red. Anti-human Fc sensors were used to capture the humanized antibodies, and several concentrations of hMCAMHis analyte were used to determine the affinity using a 1:1 fitting model.
# [4] = target: T3, human MCAM domain 1 (MCAMhFc domain …); assay: ForteBio Octet Red, MCAMhFc domains on anti-human IgG Fc biosensors
# Text: The following protocol was used: ForteBio anti-human IgG Fc biosensors were used to immobilize various MCAMhFc domains including full length MCAMhFc protein on to biosensor surface. […] After loading these samples into a black 96 well plate, the Octet Red was programmed as follows: 60 seconds for baseline #1; 180 seconds for loading various domains; 60 seconds for baseline #2; 180 seconds for association of antibody to domain; and 240 seconds for dissociation of antibody from domain.
# 1. MCAMhFc final concentration@5 ug/ml [0374] […] 3. ForteBio anti-human IgG Fc Capture (AHC) biosensors for kinetics experiments, cat #18-5060 [0376] 4. Block 96 well plate from Greiner Bio-one, cat #655209 [0377] 5. ForteBio Octet Red machine [0378] 6. Fresh tissue culture medium, DMEM with 20% FCS, was used as buffer for dilution
# [5] = target: T1, human MCAM, full length, expressed on …; assay: blocking of laminin 411 (20 ug/ml) binding to CHO cells expressing human MCAM, flow cytometry
# Experimental: The 87 independent mouse fusion clones and 26 independent rat fusion clones described in Example 1 above as being capable of (i) binding to human MCAM, and (ii) blocking the interaction between human MCAM and the α-4 chain of laminin were further characterized as follows. First, IC50 quantitation for the ability of the monoclonal antibody to block the binding of human MCAM to the α-4 chain of laminin was determined as follows. CHO cells expressing human MCAM were incubated with an anti-human MCAM antibody (at various concentrations) for 30 minutes at 4 degrees Celsius. […] Unbound laminin was then washed away, and the laminin bound to the surface of the cells was detected with fluorescently labeled anti-laminin antibodies. After washing, the amount of laminin bound to the surface was detected by flow cytometry, and IC50s were calculated based on the mean fluorescent intensity.
# Amino acid and nucleic acid sequences of the heavy and light chains of these antibodies, and their hypervariable regions, are provided in SEQ ID NOs:29-92. […] As such, each of these specific monoclonal antibodies was very capable of binding to human MCAM and inhibiting the interaction of cell-expressed human MCAM with its α-4 laminin binding ligand.
Binder,"Fold over rodent (Blocking, Expt#1) [1]","Fold over rodent (Blocking, Expt#2) [1]",Fold over rodent (competitive ELISA IC50) (recombinant hMCAM-His [2]),"Fold over rodent (competitive ELISA IC50, Expt. #1) (recombinant hMCAM-His [2])","Fold over rodent (competitive ELISA IC50, Expt. #2) (recombinant hMCAM-His [2])",Fold over rodent (Forte affinity) (recombinant hMCAM-His [3]),"Fold over rodent (Forte affinity, Expt. #1) (recombinant hMCAM-His [3])","Fold over rodent (Forte affinity, Expt. #2) (recombinant hMCAM-His [3])","Fold over rodent (Forte affinity, second column) (recombinant hMCAM-His [3])",binding result [4],IC50 [5]
"h2120_VH1 + h2120_VL3 (antibody, V domains shown, Humanized V regions cloned into expression vectors containing human CK (VL) or human IgG1 (VH); expressed in 293F cells; also called Standard VH + conservative VL; VH1VL3) VH: QVTLKESGPVLVKPTETLTLTCTVSGFSLTSNGVSWVRQPPGKALEWIAAISSGGTTYYNSAFKSRLTISRDTSKSQVVLTMTNMDPVDTATYYCARRYGYGWYFDFWGQGTLVTVSS VL: DIQMTQSPSSLSASVGDRVTINCKASQNIYNSLAWYQQKPGKAPKVLIFNANSLQTGIPSRFSGSGSGTDFTLTISSLQPEDFATYYCQQFYSGYTFGQGTKLEIK",1.7 fold,2.8 fold,1.8 fold,2.23 fold,2.42 fold,5.9 fold,5.64 fold,6.21 fold,5.8 fold,,
"h2120_VH3 + h2120_VL3 (antibody, human IgG1, V domains shown, also called N-S deamidate VH + conservative VL) VH: QVTLKESGPVLVKPTETLTLTCTVSGFSLTSSGVSWVRQPPGKALEWIAAISSGGTTYYNSAFKSRLTISRDTSKSQVVLTMTNMDPVDTATYYCARRYGYGWYFDFWGQGTLVTVSS VL: DIQMTQSPSSLSASVGDRVTINCKASQNIYNSLAWYQQKPGKAPKVLIFNANSLQTGIPSRFSGSGSGTDFTLTISSLQPEDFATYYCQQFYSGYTFGQGTKLEIK",,,,3.47 fold,,,16.1 fold,,,,
"h2120_VH1 + h2120_VL2 (antibody, human IgG1, V domains shown, also called Standard VH + aggressive VL) VH: QVTLKESGPVLVKPTETLTLTCTVSGFSLTSNGVSWVRQPPGKALEWIAAISSGGTTYYNSAFKSRLTISRDTSKSQVVLTMTNMDPVDTATYYCARRYGYGWYFDFWGQGTLVTVSS VL: DIQMTQSPSSLSASVGDRVTITCKASQNIYNSLAWYQQKPGKAPKVLIFNANSLQTGVPSRFSGSGSGTDFTLTISSLQPEDFATYYCQQFYSGYTFGQGTKLEIK",4.6 fold,12.6 fold,3.1 fold,,,10.8 fold,,,,,
"h2120_VH1 + h2120_VL1 (antibody, human IgG1, V domains shown, also called Standard VH + standard VL) VH: QVTLKESGPVLVKPTETLTLTCTVSGFSLTSNGVSWVRQPPGKALEWIAAISSGGTTYYNSAFKSRLTISRDTSKSQVVLTMTNMDPVDTATYYCARRYGYGWYFDFWGQGTLVTVSS VL: DIQMTQSPSSLSASVGDRVTITCKASQNIYNSLAWYQQKPGKAPKVLIFNANSLQTGIPSRFSGSGSGTDFTLTISSLQPEDFATYYCQQFYSGYTFGQGTKLEIK",2 fold,3.5 fold,3.1 fold,,,8.8 fold,,,,,
"h2120_VH2 + h2120_VL3 (antibody, human IgG1, V domains shown, also called Conservative VH + conservative VL) VH: QVTLKESGPVLVKPTETLTLTCTVSGFSLTSNGVSWVRQPPGKALEWIAAISSGGTTYYNSAFKSRLSISRDTSKSQVVLTMTNMDPVDTATYYCARRYGYGWYFDFWGQGTLVTVSS VL: DIQMTQSPSSLSASVGDRVTINCKASQNIYNSLAWYQQKPGKAPKVLIFNANSLQTGIPSRFSGSGSGTDFTLTISSLQPEDFATYYCQQFYSGYTFGQGTKLEIK",,,,1.93 fold,2.62 fold,,6.57 fold,6.43 fold,,,

# Further lines, results first:
"Fold over rodent (Blocking, Expt#1) [1]","Fold over rodent (Blocking, Expt#2) [1]",Fold over rodent (competitive ELISA IC50) (recombinant hMCAM-His [2]),"Fold over rodent (competitive ELISA IC50, Expt. #1) (recombinant hMCAM-His [2])","Fold over rodent (competitive ELISA IC50, Expt. #2) (recombinant hMCAM-His [2])",Fold over rodent (Forte affinity) (recombinant hMCAM-His [3]),"Fold over rodent (Forte affinity, Expt. #1) (recombinant hMCAM-His [3])","Fold over rodent (Forte affinity, Expt. #2) (recombinant hMCAM-His [3])","Fold over rodent (Forte affinity, second column) (recombinant hMCAM-His [3])",binding result [4],IC50 [5],Binder
,,,,,,,,,no binding (tested: 5 ug/ml),,"rat anti-human MCAM monoclonal antibody clone 2120.4.19 (antibody, V domains shown, also called m2120) VH: QVQLKESGPGLVQPSQTLSLTCTVSGFSLTSNGVSWVRQPPGKGLEWIAAISSGGTTYYNSAFKSRLSISRNTSKSQVLLKMNSLQTEDTAMYFCARRYGYGWYFDFWGPGTMVTVSS VL: DIRMTQSPSLLSASVGDRVTLNCKASQNIYNSLAWYQQKLGEGPKVLIPNANSLQTGIPSRFSGSGSGTDFTLTISSLQPEDFATYFCQQFYSGYTFGAGTKLELK"
1.2 fold,1.5 fold,2.4 fold,,,1.1 fold,,,1.2 fold,,,"h2120_VH5 + h2120_VL3 (antibody, V domains shown, also called h2120VH5VL3; VH5VL3) VH: QVTLKESGPVLVKPTETLTLTCTVSGFSLTSNAVSWVRQPPGKALEWIAAISSGGTTYYNSAFKSRLTISRDTSKSQVVLTMTNMDPVDTATYYCARRYGYGWYFDFWGQGTLVTVSS VL: DIQMTQSPSSLSASVGDRVTINCKASQNIYNSLAWYQQKPGKAPKVLIFNANSLQTGIPSRFSGSGSGTDFTLTISSLQPEDFATYYCQQFYSGYTFGQGTKLEIK"
3.8 fold,5.6 fold,5 fold,,,17.4 fold,,,,,,"h2120_VH4 + h2120_VL3 (antibody, human IgG1, V domains shown, also called N-Q deamidate VH + conservative VL) VH: QVTLKESGPVLVKPTETLTLTCTVSGFSLTSQGVSWVRQPPGKALEWIAAISSGGTTYYNSAFKSRLTISRDTSKSQVVLTMTNMDPVDTATYYCARRYGYGWYFDFWGQGTLVTVSS VL: DIQMTQSPSSLSASVGDRVTINCKASQNIYNSLAWYQQKPGKAPKVLIFNANSLQTGIPSRFSGSGSGTDFTLTISSLQPEDFATYYCQQFYSGYTFGQGTKLEIK"
,,,,,,,,,no binding (tested: 5 ug/ml),0.29 µg/mL,"rat anti-human MCAM monoclonal antibody clone 2107.4.10 (antibody, V domains shown) VH: QVQLKESGPGLVQSSQTLSLTCTVSGFSLTSNGVSWVRQPPGKGLEWIAAISSGGSTYYNSAFKSRLSISRNTSKSQVLLKMNSLQTEDTGMYFCARHRPFYFDYWGQGVMVTVSS VL: DIQVTQSPSLLSASVGDRVTLNCKGSQNIYKSLAWFRLKRGEAPKLLIYDANSLQTGIPSRFSGSGSGTDFTLTITSLQPEDVATYFCQQYYSGYTFGAGTKLELK"
